Data on 37 sequences can be found in the supplement of paper PMC10567573.

A short description of this data set: protein stability index of a GFP-peptide fusion (GPS, HEK-293T) (PSI 1-6); higher = more stable. The conditions noted are these: c terminus: a fixed tail appended.

± gives the standard deviation.
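Note: 24-mer peptide tiles fused after GFP, lentivirally expressed, FACS-sorted into six equal bins by GFP/DsRed ratio, decoded by Illumina sequencing, PSI is the read-weighted mean bin number.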

On to MACHRCLVYLGDLSRYQNELAGVD [SMG5], for which the protein stability index runs as follows: (treatment: DMSO) 2.64 ± 0.7; (treatment: MLN4924 1 uM, 8 h) 2.54 ± 0.55.
Take LWWIAPGDETAHRIDSQFLIGDTL [MYORG]: the protein stability index is, setting by setting: (treatment: DMSO) 1.95 ± 0.23; (treatment: MLN4924 1 uM, 8 h) 2.06 ± 0.43.
Taken in the same sequence, the figures for PPGPKGDQGDEGKEGRPGIPGLPG [SCARA5] were 5.69 ± 0.15 and 5.36 ± 0.41.
Taken in the same sequence, the figures for RPASSGGAHTLVNHGYAEPAAGRE [KCNA3] were 4.7 ± 0.44 and 4.86 ± 0.23.
With CGACLTQLFFFHLFVGVDCFLLTA [OR3A1], the protein stability index by setting is: (treatment: DMSO) 3.07 ± 0.2; (treatment: MLN4924 1 uM, 8 h) 3.02 ± 0.33.
Consider QLPFCGPNVIDNFLCDLYPLLKLA [OR4A15], for which the protein stability index (treatment: DMSO) is 2.64 ± 0.66 and the protein stability index (treatment: MLN4924 1 uM, 8 h) was found to be 2.47 ± 0.25.
In turn, ILRLPLEHACTVRNLARSQSVKMK [TAF7L] displayed a protein stability index (treatment: DMSO) of 2.92 ± 0.18 and a protein stability index (treatment: MLN4924 1 uM, 8 h) of 3.19 ± 0.34.
IYVVGGYSWNNRCMVEIVQKYDPD [KLHL13]: the protein stability index (treatment: DMSO) is 2.99 ± 1.6 and the protein stability index (treatment: MLN4924 1 uM, 8 h) was 2.91 ± 1.3.
Taken in the same sequence, the figures for CAGPLEDAVTIPCGHTFCRLCLPA [TRIM15] were 2.69 ± 0.21 and 2.67 ± 0.37.
Taken in the same sequence, the figures for TRLEQEIATYRSLLEGQDAKMAGI [KRT15] were 3.7 ± 0.22 and 3.72 ± 0.18.
In the case of PPPASQPVVKALFGASAAGGLSPV [CDC25A], the protein stability index by setting is: (treatment: DMSO) 4.08 ± 0.14; (treatment: MLN4924 1 uM, 8 h) 4.17 ± 0.21.
As to VISLLNEPNTFSPANVDASVMFRK [UBE2R2], the protein stability index is, setting by setting: (treatment: DMSO) 2.79 ± 0.31; (treatment: MLN4924 1 uM, 8 h) 3.04 ± 0.2.
DIISTVEFNHTGELLATGDKGGRV [PPP2R2B]: the protein stability index was determined as 3.16 ± 0.43 (treatment: DMSO) and 3.25 ± 0.5 (treatment: MLN4924 1 uM, 8 h).
In the case of DKTDISSGRARQQDEEMLELPAPA [MLH1], the protein stability index (treatment: DMSO) was 5.42 ± 0.36.
As to HSGQVTILKLEQENCTLVTTFRGH [WDFY2], the protein stability index runs as follows: (treatment: DMSO) 2.35 ± 0.26; (treatment: MLN4924 1 uM, 8 h) 2.29 ± 0.28.
Taken in the same sequence, the figures for NPKDCSENIEVKEGGLYFERRPVA [SPSB2] were 4.68 ± 0.17 and 4.76 ± 0.058.
Taken in the same sequence, the figures for QDEEDMFMVVDLLLGGDLRYHLQQ [STK32A] were 2.21 ± 0.18 and 2.1 ± 0.35.
For VHIETFTTRHGEVGSALHRESFTS [C10orf62], the protein stability index by setting is: (treatment: DMSO) 2.57 ± 0.35; (treatment: MLN4924 1 uM, 8 h) 2.47 ± 0.58.
Taken in the same sequence, the figures for FIGETLLSMNWAIVADILLYVVIP [SPNS1] were 3.29 ± 0.34 and 3.45 ± 0.25.
KSSKYGEGHQAWIVGIVEKGNRTA [SEPHS2] gave a protein stability index (treatment: DMSO) of 2.56 ± 0.19 and a protein stability index (treatment: MLN4924 1 uM, 8 h) of 2.56 ± 0.42.
SYVRSRKRLREEEAARLFKQIVSA [TRIB1]: the protein stability index runs as follows: (treatment: DMSO) 2.53 ± 0.38; (treatment: MLN4924 1 uM, 8 h) 3.09 ± 0.27.
Taken in the same sequence, the figures for IRISMSHEEEPLGTAGPLALARDL [GMPPB] were 3 ± 0.053 and 3.27 ± 0.34.
Taken in the same sequence, the figures for GEELADVGGVLRGLNHSLSYDVAL [SCARA5] were 3.4 ± 0.17 and 3.41 ± 0.21.
As for AEALYQTKFQELQLAAGRHGDDLK [KRT71], the protein stability index is, setting by setting: (treatment: DMSO) 4.61 ± 0.28; (treatment: MLN4924 1 uM, 8 h) 4.71 ± 0.13.
PTKSHSFRAMCQNGKLVYPSCEEK [CFHR2] yielded a protein stability index (treatment: DMSO) of 4.01 ± 0.32 and a protein stability index (treatment: MLN4924 1 uM, 8 h) of 4.25 ± 0.34.
Taken in the same sequence, the figures for SQSETSSAVSTPSPVTRTRSLSAC [DLC1] were 4.89 ± 0.23 and 4.87 ± 0.14.
On to FIYSTWKGRTIYLEDIYVMPEYRG [SAT2], for which the protein stability index is 3.21 ± 0.44 (treatment: DMSO) and 2.8 ± 0.52 (treatment: MLN4924 1 uM, 8 h).
Turning to NIPFFPDLQITDQVALLRLTWSEL [NR2F2], the protein stability index reads like this: (treatment: DMSO) 2.68 ± 0.45; (treatment: MLN4924 1 uM, 8 h) 2.12 ± 0.58.
Taken in the same sequence, the figures for LELHDYHDIIKHPMDLSTVKRKMD [BRD3] were 4.05 ± 0.19 and 3.98 ± 0.34.
In the case of PGSLLCTVAASDPDTGDNARLTYS [PCDHGC5], the protein stability index is, setting by setting: (treatment: DMSO) 4.12 ± 0.29; (treatment: MLN4924 1 uM, 8 h) 4 ± 0.14.
Taken in the same sequence, the figures for KIEGHQDAVTAALLIPKEDGVITA [WDFY1] were 4.35 ± 0.23 and 4.4 ± 0.28.
Taken in the same sequence, the figures for NLQDLCRIKIRQCIGLQNLKLLDE [ASB7] were 3.57 ± 0.24 and 3.56 ± 0.31.
ALRNLPPLRAAHRRFNFDTDRPLL [SMG5] returned a protein stability index (treatment: DMSO) of 2.72 ± 0.21 and a protein stability index (treatment: MLN4924 1 uM, 8 h) of 2.85 ± 0.45.
For LMTCEMLNRRNGSLRIALSEHLKQ [EDNRA], the protein stability index reads like this: (treatment: DMSO) 2.71 ± 0.17; (treatment: MLN4924 1 uM, 8 h) 2.72 ± 0.26.
Taken in the same sequence, the figures for EGCKSFFKRSVRRNLSYTCRANRN [NR2F2] were 3.34 ± 0.36 and 3.52 ± 0.31.
With TGGLGGERERQPCGDGNTETHRAP [SOAT2], the protein stability index is, setting by setting: (treatment: DMSO) 5.37 ± 0.15; (treatment: MLN4924 1 uM, 8 h) 5.31 ± 0.19.
Taken in the same sequence, the figures for YCKTSDGRVVPESQCQMETKPLAI [ADAMTSL2] were 3.94 ± 0.33 and 4.32 ± 0.11.
